# Measured values published in article PMC3064986 (Biochemical and biophysical research communications, 2011).
# B1: yeast ornithine decarboxylase (Saccharomyces cerevisiae SPE1) (enzyme, UniProt P08432 1-466, looked up)
# chain: MSSTQVGNALSSSTTTLVDLSNSTVTQKKQYYKDGETLHNLLLELKNNQDLELLPHEQAHPKIFQALKARIGRINNETCDPGEENSFFICDLGEVKRLFNNWVKELPRIKPFYAVKCNPDTKVLSLLAELGVNFDCASKVEIDRVLSMNISPDRIVYANPCKVASFIRYAASKNVMKSTFDNVEELHKIKKFHPESQLLLRIATDDSTAQCRLSTKYGCEMENVDVLLKAIKELGLNLAGVSFHVGSGASDFTSLYKAVRDARTVFDKAANEYGLPPLKILDVGGGFQFESFKESTAVLRLALEEFFPVGCGVDIIAEPGRYFVATAFTLASHVIAKRKLSENEAMIYTNDGVYGNMNCILFDHQEPHPRTLYHNLEFHYDDFESTTAVLDSINKTRSEYPYKVSIWGPTCDGLDCIAKEYYMKHDVIVGDWFYFPALGAYTSSAATQFNGFEQTADIVYIDSELD
# B2: yeast antizyme (Saccharomyces cerevisiae), N-terminal 6XHis-tagged, full length (natural protein, UniProt Q02803 1-292, looked up)
# chain: MYEVIQKRKTKIINVLQSPELMRLIEDPSNLGISLHFPVSSLLKSNKCTPMPKLSTYSLASGGFKDWCADIPLDVPPEIDIIDFYWDVILCMESQFILDYNVPSKNKGNNQKSVAKLLKNKLVNDMKTTLKRLIYNENTKQYKNNNSHDGYNWRKLGSQYFILYLPLFTQELIWCKLNENYFHVVLPSLLNSRNVHDNHSTYINKDWLLALLELTSNLNQNFKFEYMKLRLYILRDDLINNGLDLLKNLNWVGGKLIKNEDREVLLNSTDLATDSISHLLGDENFVILEFEC
# Columns and labels:
# [1] = molecular target: B2; assay: SEC-MALS
# [2] = molecular target: B1; assay: SPR
stoichiometry N [1] [ODC per AZ],Kd [2] [nM],kon [2] [M⁻¹ s⁻¹],Binder
1,–,–,B1
–,17.3,31400,B2
